{"source": "paper doi:10.1101/190033", "about": "(bioRxiv, 2017)", "proteins": {"B1": {"name": "Leeuwenhoekiella blandensis NrdB, thrombin-cleaved (hexahistidine tag removed), used for crystallization (enzyme, Leeuwenhoekiella blandensis MED217)", "chain": "GSHMSSQEIKKIIKRDYSTAPFVLEKITNAIANAMAALGHGSEQDAKLISMQVYESLLNNKEQESEYIPTVEQVQDMVEDKLMSSEFHDVAKAYIIYRNKRALERKTNIFEKRINLKPYEYPELNEYVAAIRHSYWIHTEFNFTSDIQDFKTGLSEVERSAIKNTMLAISQIEVAVKTFWGDVHHRLPKPEIAAVGATFAESEVRHHDAYSHLLEILGLNEEFKELKKKPVIMKRVHYLETSLKHAKSDDDREYTESILLFALFIEHVSLFSQFLIIMAFNKHKNMLKGISNAVEATSKEEQIHGDFGVDIINIIKKENPEWFDEEHNNLIKEMCLNSFEAESKVVDWIFEKGELDFLPKAVINEFLKNRFNKSLEAIGLEKLFDIDEALLQETEWFDDEIIGTKHGDFFVKRSINYSKRTQSITSDDLF"}, "B2": {"name": "Leeuwenhoekiella blandensis class I ribonucleotide reductase radical-generating subunit NrdBi (NrdB), wild type (enzyme, Leeuwenhoekiella blandensis MED217, UniProt A3XHF9 1-427, looked up)", "chain": "MSSQEIKKIIKRDYSTAPFVLEKITNAIANAMAALGHGSEQDAKLISMQVYESLLNNKEQESEYIPTVEQVQDMVEDKLMSSEFHDVAKAYIIYRNKRALERKTNIFEKRINLKPYEYPELNEYVAAIRHSYWIHTEFNFTSDIQDFKTGLSEVERSAIKNTMLAISQIEVAVKTFWGDVHHRLPKPEIAAVGATFAESEVRHHDAYSHLLEILGLNEEFKELKKKPVIMKRVHYLETSLKHAKSDDDREYTESILLFALFIEHVSLFSQFLIIMAFNKHKNMLKGISNAVEATSKEEQIHGDFGVDIINIIKKENPEWFDEEHNNLIKEMCLNSFEAESKVVDWIFEKGELDFLPKAVINEFLKNRFNKSLEAIGLEKLFDIDEALLQETEWFDDEIIGTKHGDFFVKRSINYSKRTQSITSDDLF"}, "B3": {"name": "Leeuwenhoekiella blandensis class I ribonucleotide reductase catalytic subunit NrdAi (NrdA) (enzyme, Leeuwenhoekiella blandensis MED217, UniProt A3XHF8 1-600, looked up)", "chain": "MRENTTKLENSTETNVQHTKDNDLLKARRDALQDATEKNTDEPSFDWLTEHSRSFLAAGYLSEGVSAEERIREIADRAEEILRMPGFSDKFYKYMGEGYFSLASPVWSNFGKKRGLPISCFGSHIDDDMGNILYTQSEVGMMSKLGGGTSGYFGKIRHRGAAVKNNGYASGAVHIMQLFDKMVDVVSQGSVRRGRFSPYLPISHPDIKEFLEIGTEGNSIQQLTHGVTVDSTWMQEMIDGDTDKREVWAKVLQRRGEMGYPYIFYTDNANNGKPDVYKDKGHDIYASNLCTEIMLPSSDEWSFVCVLSSINVLHYDKWKNTDAVETMVCFLDAVLTEFIDKLEEYRDSDNRDHRQTFMFMERAYNFAKSNRALGLGVLGWHSLLQSKRHAFDSQEAYDLNSEIFREIKQRSYKASEELAEKFGEPETLKGYGRRNATLNAIAPTTSSAFILGQVSQGIEPIWSNVYVKDIAKIKTTIKNPFLEELFEEKGMNTPEVWRSVRDNDGSVQHLEFLTEQEKDVFKTYAEIDQMAIIYQAANRQNHIDQGQSINLLVHPDMPIKEINKIHITAWKLGLKSLYYQHSMNAAQKFKQKKECVSCEA"}}, "key": {"crystal structure": {"target": "the molecule itself", "experiment": "crystal structure"}, "SEC [1]": {"target": "the molecule itself", "experiment": "SEC"}, "GEMMA": {"target": "the molecule itself", "experiment": "GEMMA"}, "SEC [2]": {"target": "the molecule itself", "experiment": "SEC", "remark": "listed apart in the source"}}, "data": [{"protein": "B1", "values": [{"measurement": "stoichiometry N", "setting": "crystal structure", "result": 4}]}, {"protein": "B2", "values": [{"measurement": "stoichiometry N", "setting": "SEC [1]", "result": 2}, {"measurement": "stoichiometry N", "setting": "GEMMA", "result": 4}]}, {"protein": "B3", "values": [{"measurement": "stoichiometry N", "setting": "SEC [2]", "result": 2}]}]}
